# In paper PMC9352346 (2022):
# B1: Arl15-AL-Myc [human] / GST-Smad4 [not stated] (parent complex)
# chain 1: MSDLRITEAFLYMDYLCFRALCCKGPPPARPEYDLVCIGLTGSGKTSLLSKLCSESPDNVVSTTGFSIKAVPFQNAILNVKELGGLDNIRKYWSRYYQGSQGVIFVLDSASSEDDLEAARNELHSALQHPQLCTLPFLILANHQDKPAARSVQEIKKYFELEPLARGKRWILQPCSLDDMDALKDSFSQLINLLEEKDHEAVRM
# chain 2: MDNMSITNTPTSNDACLSIVHSLMCHRQGGESETFAKRAIESLVKKLKEKKDELDSLITAITTNGAHPSKCVTIQRTLDGRLQVAGRKGFPHVIYARLWRWPDLHKNELKHVKYCQYAFDLKCDSVCVNPYHYERVVSPGIDLSGLTLQSNAPSSMMVKDEYVHDFEGQPSLSTEGHSIQTIQHPPSNRASTETYSTPALLAPSESNATSTANFPNIPVASTSQPASILGGSHSEGLLQIASGPQPGQQQNGFTGQPATYHHNSTTTWTGSRTAPYTPNLPHHQNGHLQHHPPMPPHPGHYWPVHNELAFQPPISNHPAPEYWCSIAYFEMDVQVGETFKVPSSCPIVTVDGYVDPSGGDRFCLGQLSNVHRTEAIERARLHIGKGVQLECKGEGDVWVRCLSDHAVFVQSYYLDREAGRAPGDAVHKIYPSAYIKVFDLRQCHRQMQQQAATAQAAAAAQAAAVAGNIPGPGSVGGIAPAISLSAAAGIGVDDLRRLCILRMSFVKGWGPDYPRQSIKETPCWIEIHLHRALQLLDEVLHTMPIADPQPLD
# B2: GFP-Smad4-WT [not stated] / GST-Arl15-AL [human] (parent complex)
# chain 1: B1 chain 2
# chain 2: B1 chain 1
# Variants of: B1
# Test: GST pull-down, immunoblot band quantification; HeLa cell lysates; bead-immobilized GST-Smad4; parent: 100
row,percent of parent,Variant
1,93,chain 1 D58N
2,87,chain 1 R150H

# Variants of: B2
# Test: GST pull-down, immunoblot band quantification; HEK293T cell lysates; bead-immobilized GST-Arl15-AL; n=3; parent: 1; read off a plot
row,ratio to parent,Variant
1,~0.2,chain 1 A532D
2,~0.9,chain 1 D493H
3,~0.37,chain 1 H541Y
4,~1,chain 1 R497H
5,~1.3,chain 1 L495P
6,~1.1,chain 1 R496H
7,~1.1,chain 1 M447K
8,~0.29,chain 1 E538K
